The assay addresses human type IIA sPLA2 (human) (UniProt P14555). As to the kind of experiment: cell-based or functional assay.

For four substances, IC50 of sPLA2 enzyme inhibition (3H-labelled E. coli membranes as substrate) and Mean % Inhibition results are on record in patent US20050069530A1.

Chain of human type IIA sPLA2 (human) (P14555 21-144): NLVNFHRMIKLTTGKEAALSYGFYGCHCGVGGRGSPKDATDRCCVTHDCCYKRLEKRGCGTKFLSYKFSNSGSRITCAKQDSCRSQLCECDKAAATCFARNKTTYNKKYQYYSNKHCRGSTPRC

On to D65A-PIP (59-67) (peptide), for which the IC50 of sPLA2 enzyme inhibition (3H-labelled E. coli membranes as substrate) stood at 5.45 µM.

With D65E-PIP (59-67) (peptide), the IC50 of sPLA2 enzyme inhibition (3H-labelled E. coli membranes as substrate) is 4.95 µM.

As for D65S-PIP (59-67) (peptide), the IC50 of sPLA2 enzyme inhibition (3H-labelled E. coli membranes as substrate) came to 5.25 µM.

In turn, PIP (59-67) dimer (peptide) returned an IC50 of sPLA2 enzyme inhibition (3H-labelled E. coli membranes as substrate) of 1.19 µM and a Mean % Inhibition at fixed peptide concentration [5 µM] of 74.5%.
